Reference: patent US20100130423

What was measured:
[1] = target: LnK PH domain (from V5-LnK mutant constructs) (UniProt Q9UQQ2)
[2] = target: adaptor protein LnK, wild type (UniProt Q9UQQ2)

JAK2 V617F
JAK2 V671F autophosphorylation levels [1]: The LnK PH domain associates with and inhibits JAK2 V671F
tyrosine phosphorylation of LnK (anti-phosphotyrosine immunoprecipitation, LnK Western blot) [2]: the phosphorylation levels of LnK itself are higher in 293T cells expressing JAK2 V617F compared with cells expressing JAK2 WT
